The values below come from article PMC7583315, “Disruptive natural selection by male reproductive potential prevents underexpression of protein-coding genes on the human Y chromosome as a self-domestication syndrome”.

For one data set, the target named is TBP (Homo sapiens) (UniProt P20226). The following applies: cited from earlier work.
Data set [1] addresses T1, TBP (TATA-binding protein) (human, UniProt P20226 1-339). Briefly: EMSA; 2 nM TBP; Kd from association kinetics; EMSA with 2 nM TBP and varied ODN concentrations; Kd from reaction rates vs ODN concentration (GraphPad Prism 5); buffer, salt, pH and temperature not given in. The following applies: protein: recombinant; blunt.
The target in data set [2] is T1, TBP (TATA-binding protein). Briefly: EMSA; 2 nM TBP; EMSA with 2 nM TBP and varied ODN concentrations; Kd from reaction rates vs ODN concentration (GraphPad Prism 5); buffer, salt, pH and temperature not given in. The following applies: protein: recombinant; blunt. On the technique in general: In EMSA bound probe runs differently from free probe, usually more slowly.

T1 sequence (P20226 whole entry): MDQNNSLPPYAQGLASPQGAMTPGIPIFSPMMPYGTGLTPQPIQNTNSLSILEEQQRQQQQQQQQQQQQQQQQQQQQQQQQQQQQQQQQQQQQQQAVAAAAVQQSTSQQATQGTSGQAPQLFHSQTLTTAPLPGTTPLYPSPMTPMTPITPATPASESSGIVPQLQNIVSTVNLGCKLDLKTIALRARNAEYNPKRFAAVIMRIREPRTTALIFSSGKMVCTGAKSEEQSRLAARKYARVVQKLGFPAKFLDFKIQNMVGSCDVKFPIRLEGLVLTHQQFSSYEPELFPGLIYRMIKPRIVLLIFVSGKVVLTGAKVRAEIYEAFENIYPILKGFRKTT

In general, Kd refers to the concentration at which binding is half-saturated. Turning to TBP (from UniProt P20226), in the data set with TBP (Homo sapiens), the Kd was 4 nM.

B1: SHOX -45G (rs1452787381 minor) (dsDNA)
DNA 1: GAGGTCGCCGCGTGTAAATAGTGAGA
DNA 2: TCTCACTATTTACACGCGGCGACCTC
As to B1, the Kd in data set [1] was 260 ± 70 nM.

B2: CDY2A -24 minor (printed -24t, sequence has C) (dsDNA)
DNA 1: AGAATGTTCCATACAATCGTCATAGC
DNA 2: GCTATGACGATTGTATGGAACATTCT
With B2, the Kd in data set [2] was 500 ± 200 nM.

B3: ZFY -56C (WT) (dsDNA)
DNA 1: GGCGGAGGGGGCCCAACTACCATCCC
DNA 2: GGGATGGTAGTTGGGCCCCCTCCGCC
Consider B3, for which the Kd in data set [2] stood at 1000 ± 400 nM.

B4: CDY2A -24 WT (printed -24G, sequence has T) (dsDNA)
DNA 1: AGAATGTTCCATATAATCGTCATAGC
DNA 2: GCTATGACGATTATATGGAACATTCT
B4: the Kd in data set [2] turned out to be 160 ± 30 nM.

B5: ZFY -56T (minor) (dsDNA)
DNA 1: GGCGGAGGGGGCCTAACTACCATCCC
DNA 2: GGGATGGTAGTTAGGCCCCCTCCGCC
In the case of B5, the Kd in data set [2] came to 2000 ± 1000 nM.

B6: SHOX -45A (rs1452787381 WT) (dsDNA)
DNA 1: GAGGTCGCCGCGTATAAATAGTGAGA
DNA 2: TCTCACTATTTATACGCGGCGACCTC
Turning to B6, the Kd in data set [1] came to 39 ± 7 nM.

B7: ASMT -30G (rs1402972626 WT) (dsDNA)
DNA 1: GGTGACCTTTTGTGCCCAGAATAGGT
DNA 2: ACCTATTCTGGGCACAAAAGGTCACC
B7: the Kd in data set [2] was determined as 600 ± 300 nM.

B8: GTPBP6 -24G (rs1393008234 WT) (dsDNA)
DNA 1: ATCACGAGCACGTGATGAGGAGCGGC
DNA 2: GCCGCTCCTCATCACGTGCTCGTGAT
As to B8, in data set [2], the dissociation constant Kd came out at 1500 ± 200 nM.

B9: GTPBP6 -24T (rs1393008234 minor) (dsDNA)
DNA 1: ATCACGAGCACGTTATGAGGAGCGGC
DNA 2: GCCGCTCCTCATAACGTGCTCGTGAT
Take B9: the Kd in data set [2] turned out to be 1400 ± 200 nM.

B10: ASMT -30A (rs1402972626 minor) (dsDNA)
DNA 1: GGTGACCTTTTGTACCCAGAATAGGT
DNA 2: ACCTATTCTGGGTACAAAAGGTCACC
Take B10: the Kd in data set [2] was found to be 1000 ± 300 nM.
